Data on one substance can be found in article PMC8825253, “pHBMT1, a BAHD-family monolignol acyltransferase, mediates lignin acylation in poplar” (Plant Physiology, 2021).

Assay in all cases: LC-MS product quantification, Lineweaver-Burk
What all share (assay type): biochemical, Populus trichocarpa

The test system of one series is COc1cc(/C=C/CO)cc(OC)c1O. Conditions: saturating p-hydroxybenzoyl-CoA, 50 mM sodium phosphate pH 6, 1 mM DTT, wheatgerm cell-free enzyme. The source says:
(§1) LC-MS product quantification, Lineweaver-Burk on pHBMT1 (Potri.001G448000)

For a further series, the system named is COc1cc(/C=C/CO)ccc1O. Conditions: saturating p-hydroxybenzoyl-CoA, 50 mM sodium phosphate pH 6, 1 mM DTT, wheatgerm cell-free enzyme.
From the text: as §1

The subject of series [1] is CC(C)(COP(=O)(O)OP(=O)(O)OC[C@H]1O[C@@H](n2cnc3c(N)ncnc32)[C@H](O)[C@@H]1OP(=O)(O)O)[C@@H](O)C(=O)NCCC(=O)NCCSC(=O)c1ccc(O)cc1. Conditions: saturating sinapyl alcohol, 50 mM sodium phosphate pH 6, 1 mM DTT, wheatgerm cell-free enzyme.
From the text: as §1

“pHBMT1 (Potri.001G448000) (Populus trichocarpa)”: the Km amounted to 300 ± 72 µM in the series on COc1cc(/C=C/CO)cc(OC)c1O, 954 ± 411 µM with COc1cc(/C=C/CO)ccc1O and 448 ± 21 µM in series [1]. Further, the kcat was 0.13 ± 0.01 s⁻¹ with COc1cc(/C=C/CO)cc(OC)c1O, 0.1 ± 0.02 s⁻¹ with COc1cc(/C=C/CO)ccc1O and 0.18 ± 0.03 s⁻¹ in series [1]. The kcat/Km amounted to 490 M⁻¹ s⁻¹ in the series with COc1cc(/C=C/CO)cc(OC)c1O and 400 M⁻¹ s⁻¹ in series [1].

As a reminder, the Km is the concentration of substrate that gives half-maximal velocity. In general, kcat refers to the maximal rate divided by the concentration of active sites. Usually kcat/Km stands for the second-order rate constant that governs catalysis at low substrate concentration.
